Test results from EP4782466A1, “FUSION PROTEIN FOR INACTIVATING CORONAVIRUS AND USE THEREOF” (priority 2023, dated 2025).

Tests used:
Assay in all cases: cell-based or functional assay
[1] = target: S protein of bat-derived SARS-CoV-like coronavirus Rs3367 (bat-derived SARS-CoV-like coronavirus Rs3367)
[2] = target: S protein of bat-derived SARS-CoV-like coronavirus WIV1 (bat-derived SARS-CoV-like coronavirus WIV1)
[3] = target: S protein of SARS-CoV (SARS-CoV) (UniProt P59594)
[4] = target: S protein of SARS-CoV-2 prototype strain (SARS-CoV-2 prototype) (UniProt P0DTC2)
[5] = target: S protein of Human Coronavirus NL63 (Human Coronavirus NL63) (UniProt Q6Q1S2)

Substance: ACE2 protein alone (ACE2 peptidase domain alone) (from UniProt Q9BYF1 18-615) (receptor)
- EC50, inactivation of pseudovirus (Caco-2, luciferase) [1]: 0.274 µM
- IC50, inhibition of pseudovirus infection (Caco-2, luciferase) [1]: 0.249 µM
- EC50, inactivation of pseudovirus (Caco-2, luciferase) [2]: 0.758 µM
- IC50, inhibition of pseudovirus infection (Caco-2, luciferase) [2]: 0.239 µM
- EC50, inactivation of pseudovirus (Caco-2, luciferase) [3]: 1.24 µM
- IC50, inhibition of pseudovirus infection (Caco-2, luciferase) [3]: 0.0095 µM

Substance: AL5E protein (ACE2-linker-EK1 fusion protein with (GGGGS)5 linker)
- EC50, inactivation of pseudovirus (Caco-2, luciferase) [1]: 0.0107 µM
- Fold enhancement in activity of AL5E over ACE2 (EC50, pseudovirus inactivation) [1]: 25.6 fold
- Fold enhancement in activity of AL5E over ACE2 (IC50, pseudovirus inhibition) [1]: 42.2 fold
- IC50, inhibition of pseudovirus infection (Caco-2, luciferase) [1]: 0.0059 µM
- EC50, inactivation of pseudovirus (Caco-2, luciferase) [4]: 0.0051 µM
- Fold enhancement of AL5E over ACE2 (EC50, pseudovirus inactivation) [4]: 22.2 fold
- Fold enhancement of AL5E over ACE2 (IC50, pseudovirus inhibition) [4]: 26.9 fold
- IC50, inhibition of pseudovirus infection (Caco-2, luciferase) [4]: 0.00026 µM
- EC50, inactivation of pseudovirus (Caco-2, luciferase) [5]: 0.00108 µM
- Fold enhancement in activity of AL5E over ACE2 (EC50, pseudovirus inactivation) [5]: 540 fold
- Fold enhancement in activity of AL5E over ACE2 (IC50, pseudovirus inhibition) [5]: 34.4 fold
- IC50, inhibition of pseudovirus infection (Caco-2, luciferase) [5]: 0.00083 µM
- EC50, inactivation of pseudovirus (Caco-2, luciferase) [2]: 0.00354 µM
- Fold enhancement in activity of AL5E over ACE2 (EC50, pseudovirus inactivation) [2]: 214 fold
- Fold enhancement in activity of AL5E over ACE2 (IC50, pseudovirus inhibition) [2]: 71.2 fold
- IC50, inhibition of pseudovirus infection (Caco-2, luciferase) [2]: 0.00336 µM
- EC50, inactivation of pseudovirus (Caco-2, luciferase) [3]: 0.0181 µM
- Fold enhancement in activity of AL5E over ACE2 (EC50, pseudovirus inactivation) [3]: 68.1 fold
- Fold enhancement in activity of AL5E over ACE2 (IC50, pseudovirus inhibition) [3]: 13.8 fold
- IC50, inhibition of pseudovirus infection (Caco-2, luciferase) [3]: 0.00069 µM

Substance: AL7E protein (ACE2-linker-EK1 fusion protein with (GGGGS)7 linker)
- IC50, inhibition of pseudovirus infection (Caco-2, luciferase) [4]: 0.00037 µM

Substance: AL6E protein (ACE2-linker-EK1 fusion protein with (GGGGS)6 linker)
- IC50, inhibition of pseudovirus infection (Caco-2, luciferase) [4]: 0.00023 µM

Substance: EK1 polypeptide
- IC50, inhibition of pseudovirus infection (Caco-2, luciferase) [1]: 1.34 µM
- IC50, inhibition of pseudovirus infection (Caco-2, luciferase) [4]: 0.186 µM
- IC50, inhibition of pseudovirus infection (Caco-2, luciferase) [5]: 1.07 µM
- IC50, inhibition of pseudovirus infection (Caco-2, luciferase) [2]: 2.45 µM
- IC50, inhibition of pseudovirus infection (Caco-2, luciferase) [3]: 0.841 µM

Substance: AL2E protein (ACE2-linker-EK1 fusion protein with (GGGGS)2 linker) (from UniProt Q9BYF1 18-615)
- IC50, inhibition of pseudovirus infection (Caco-2, luciferase) [4]: 0.0006 µM
